US8673594B2, “Methods for stimulating nervous system regeneration and repair by regulating arginase I and polyamine synthesis” (Research Foundation of City University of New York, priority 2000, dated 2014)

B1: BDNF: Brain-derived neurotrophic factor, Trk-family neurotrophin (protein, UniProt P23560 19-247, looked up)
Neurotrophic factor BDNF …: APMKEANIRGQGGLAYPGVRTHGTLESVNGPKAGSRGLTSLADTFEHVIEELLDEDQKVRPNEENNKDADLYTSRVMLSSQVPLEPPLLFLLEEYKNYLDAANMSMRVRRHSDPARRGELSVCDSISEWVTAADKKTAVDMSGGTVTVLEKVPVSKGQLKQYFYETKCNPMGYTKEGCRGIDKRHWNSQCRTTQSYVRALTMDSKKRIGWRFIRIDTSCVCTLTIKRGR
B2: GDNF: glial cell line-derived neurotrophic factor (protein, UniProt P39905 78-211, looked up)
Glial cell line-derived …: SPDKQMAVLPRRERNRQAAAANPENSRGKGRRGQRGKNRGCVLTAIHLNVTDLGLGYETKEELIFRYCSGSCDAAETTYDKILKNLSRNRRLVSDKVGQACCRPIAFDDDLSFLDDNLVYHILRKHSAKRCGCI

Test system: ArgI protein in cerebellar neurons
Assay: Arginase I protein level in cerebellar neurons by SDS-PAGE and Western blot
Assay type: cell-based
Settings: for increase in amount of ArgI protein: after 1 hour of exposure; for increase in amount of ArgI protein / time of peak of ArgI protein increase post-treatment / time for which ArgI protein increase was sustained: dbcAMP 1 mM or BDNF 200 ng/ml; for time for which ArgI protein increase was sustained: declining by 24 hours
Method: Cerebellar neurons were untreated (−) or exposed to either (A) 200 ng/ml BDNF or (B) 1 mM dbcAMP for 1 hour (h), 3 h, 21 h or 24 h; or (C) 200 ng/ml GDNF (+) for 1 h, 3 h or 5 h and the cells lysed in the presence of protease inhibitors. Total protein (23 μg) was subjected to SDS-polyacrylamide gel (12%) electrophoresis (SDS-PAGE), transferred to nitrocellulose membrane and immunostained with antibody to Arg I. The arrows indicate the position of ArgI polypeptide.
We next assessed the expression of ArgI in cerebellar neurons at the protein level. After exposure of cerebellar neurons to either dbcAMP or BDNF for various times, neurons were lysed, proteins were extracted and the extracted proteins were separated by SDS PAGE before being transferred to membrane and immunostained with a polyclonal antibody against arginase I (see Example 2).
Cerebellar neurons were untreated (−) or exposed to 200 ng/ml GDNF for 1 h, 3 h or 5 h and the cells lysed in the presence of protease inhibitors. Total protein (23 μg) was subjected to SDS-polyacrylamide gel (12%) electrophoresis (SDS-PAGE), transferred to nitrocellulose membrane and immunostained with antibody to Arg I. As shown in FIG. 5(C), the amount of ArgI polypeptide increased at least two-fold after treatment of neurons with GDNF.
Neurons were lysed, proteins were extracted and the extracted proteins (23 μg of total protein per lane) separated by SDS-polyacrylamide gel (12%) electrophoresis (SDS-PAGE) according to well-known procedures (see Ausubel et al., supra). Separated proteins were transferred to nitrocellulose membrane and immunostained with antibody to Arg I. The results are shown in FIG. 5, where the arrows indicate the position of ArgI polypeptide. Polyclonal antibodies were generated against the recombinant arginase of Cavalli at al., Biochemistry, 33, pp. 10652-657 (1994), which described the recombinant expression and purification of rat liver arginase I in E. coli. Polyclonal antibodies were generated essentially according to the procedures of Hanly et al., ILAR Journal, 37, pp. 141-152 (1995), incorporated herein by reference.
For the measurement of arginase I protein levels by immunoblot, cells were harvested and washed with ice cold PBS and then resuspended (100 μl/10^7 cells) in ice cold extraction buffer containing 50 mM Tris-HCl, pH 7.4, 150 mM NaCl, 2 mM EDTA, Triton-X 100, 1 mM phenylmethylsulfonyl fluoride (PMSF), 10 micrograms/ml leupeptin, 1 micromolar pepstatin, 1 mM N-ethylmaleimide (NEM), 2 mM Na3VO4, 20 mM sodium pyrophosphate, and 50 mM NaP). Lysates were centrifuged at 15,000 RPM at 4 degrees centigrade for 30 minutes. The clear cytosol was separated from the insoluble pellet fraction and immediately used for immunoblot. The supernatants were removed carefully and the protein concentration was quantified by the Bradford method. Lysates were mixed with boiling Laemmli's buffer (1× is 100 mM Tris-HCl, pH 6.8, 4% SDS, 200 mM dithiothreitol, 20% glycerol, 2% SDS, 0.2% bromophenol blue, 10 micrograms/ml aprotinin, 10 micrograms/ml leupeptin). The samples were boiled for 10 minutes at 100° C. and centrifuged at 15,000 rpm for 10 seconds. Approximately 30 micrograms of protein was electrophoresed under reducing conditions on 10% SDS-polyacrylamide gels and transferred to nitrocellulose membrane. Membranes were blocked in 5% skim milk in TBST (Tris, pH 7.4; 150 mM NaCl; 0.05% Tween 20) for 30 minutes at room temperature. Blots were probed with primary antibodies overnight at 4° C., followed by incubation with anti-rabbit or anti-mouse IgG conjugated with horseradish peroxidase (Bio-Rad, Hercules, Calif.) for 1 hour. Signals were detected using the ECL system (Amersham Corp, Arlington, Heights, Ill.).

| Molecule | increase in amount of ArgI protein | time of peak of ArgI protein increase post-treatment | time for which ArgI protein increase was sustained | increase in amount of ArgI polypeptide (200 ng/ml GDNF for 1 h, 3 h or 5 h) |
| --- | --- | --- | --- | --- |
| CCCC(=O)Nc1ncnc2c1ncn2[C@@H]1O[C@@H]2COP(=O)(O)O[C@H]2[C@H]1OC(=O)CCC [dbcAMP, dibutyryl cAMP] | at least two-fold | around 3 hours | 21 h |  |
| B1 | at least two-fold | around 3 hours | 21 h |  |
| B2 |  |  |  | at least two-fold |
